Measurements reported in patent US20230416343A1 (SORRENTO THERAPEUTICS, published 2023).
Where “and” joins values, the source holds several entries; their conditions need not be identical. Equal values may be shown once. Read-outs that look alike come from different tables or passages of the source.

Legend:
[1] = target: SARS-CoV-2 spike protein expressed on HEK293 cells (SARS-CoV-2, UniProt P0DTC2 14-1273)
[2] = target: T1, SARS-CoV-2 D614G mutant spike protein expressed on HEK293 cells (SARS-CoV-2, UniProt P0DTC2 14-1273)
[3] = target: SARS-CoV-2 variant spike protein E484K on HEK293 cells (SARS-CoV-2, UniProt P0DTC2 14-1273)
[4] = target: SARS-CoV-2 variant spike protein F490S on HEK293 cells (SARS-CoV-2, UniProt P0DTC2 14-1273)
[5] = target: SARS-CoV-2 variant spike protein S494P on HEK293 cells (SARS-CoV-2, UniProt P0DTC2 14-1273)
[6] = target: SARS-CoV-2 variant spike protein triple mutant K417N, E484K, and N501Y on HEK293 cells (SARS-CoV-2, UniProt P0DTC2 14-1273)
[7] = target: T1, SARS-CoV-2 D614G mutant spike protein …; remark: listed apart in the source
[8] = target: S protein of live SARS-CoV-2 strain 2020001 (spike protein having the D614G mutation) (SARS-CoV-2, UniProt P0DTC2 14-1273); assay: cell-based or functional assay
[9] = target: S protein of live SARS-CoV-2 Alpha variant virus (SARS-CoV-2, UniProt P0DTC2 14-1273); assay: cell-based or functional assay

B1: S1D7270LALA antibody (STI-2020) (antibody, V domains shown)
VH: EVQLVESGGGLIQPGGSLRLSCAASGFTVSSNYMSWVRQAPGKGLEWVSIIYPGGSTEYADSVKGRFTISRDNSRNTLYLQMNSLRAEDTAVYYCARELGYYGMDVWGQGTTVTVSS
VL: DIQMTQSPSSVSASVGDRVTITCRASQGISTWLVWYQQKPGKAPNLLIYGASSLQSGVPSRFSGSGSGTDFTLTISSLQPEDFATYYCQQANAYPYTFGQGTKLEIK
- EC50 [1]: 0.12 µg/mL
- EC50 [2]: 0.13 µg/mL
- EC50 [3]: 140 µg/mL
- EC50 [4]: 48 µg/mL
- EC50 [5]: 131 µg/mL
- EC50 [6]: > 10000 µg/mL
- EC50 [7]: 130 µg/mL
- IC50, inhibition of cytopathic effect (CPE) on Vero E6 cells, live virus [8]: 0.055 µg/mL
- IC50, plaque reduction neutralization test on Vero E6 cells, live virus [9]: 0.00908 µg/mL and 0.0164 µg/mL
